In the supplement of paper PMC10567573:

B1: ZNF511 (parent)
chain: YEHHYHTLHGNVCSFCKRAFPSGH

Variants of: B1
Experiment: protein stability index of a GFP-peptide fusion (GPS, HEK-293T) (PSI 1-6); higher = more stable
Conditions: c terminus: a fixed tail appended
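Note: lentivirally expressed fusions sorted by FACS into six bins by GFP to DsRed ratio, PSI derived from sequencing read proportions per bin multiplied by bin number.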

Protein stability index of substitutions, site by site:
G23: L 1.63; A 2.1; K 2.01; Q 1.93; R 1.98; T 2.16; N 2.51; I 1.86; S 2.7; F 1.83; P 2.27; V 1.61; H 1.38; Y 1.97; C 2.33; E 1.86; D 2.31; M 1.92; W 1.62
S22: F 2.15; V 1.84; N 3.01; G 2.02; I 2.24; W 1.47; R 2.03; Q 1.45; P 2.67; T 2.27; K 1.8; M 2.89; H 2.99; C 2.69; Y 1.7; L 2.87; A 2.08; D 2.33; E 2.44
S14: C 2.39; E 2.53; N 2.57; T 2.23; M 2.3; R 2.87; P 3.3; A 2.94; D 2.4; Y 3.38; I 2.53; K 2.3; Q 2.88; G 1.88; W 2.53; F 2.03; V 1.38; L 2.04; H 2.31
P21: C 3.6; H 2.32; D 2.88; Q 1.97; V 2.34; W 1.61; M 2.57; L 2.36; T 2.38; A 2.6; G 2.31; I 2.29; N 1.97; F 2.13; K 1.9; R 1.91; S 2.48; E 2.2; Y 1.77
G10: T 2.13; K 2.76; S 1.97; C 2.46; L 1.95; N 2.28; D 2.29; P 1.95; E 2.39; A 2.23; F 1.78; Q 1.78; Y 2.46; W 2.29; V 1.87; I 1.83; M 2.01; H 1.87; R 1.59
K17: W 1.3; C 1.89; V 1.87; I 1.84; T 2.02; D 2.5; E 2.59; N 2.18; F 1.84; A 2.23; Q 2.41; L 2.4; P 1.78; M 1.77; G 2.61; H 2.18; Y 1.77; S 2.22; R 2.2
F20: Y 2.25; H 3.37; G 2.82; T 2.68; E 2.4; W 2.42; C 2.55; K 2.64; V 2.58; Q 2.37; I 2.23; S 2.96; L 2.27; D 3.27; R 2.12; P 2.34; N 3.13; M 2.38; A 2.41
A19: W 2.25; E 2.13; K 2.11; T 2.29; H 2.85; R 2.37; G 1.96; M 2.29; L 2.36; Y 2.25; I 1.85; S 2.28; P 1.89; C 2.19; N 2.37; V 1.99; D 2.42; F 2.84; Q 1.47
C13: S 2.22; R 2.17; H 1.9; A 2.18; D 2.29; F 1.5; L 1.5; W 1.52; G 2.54; T 1.97; Y 1.78; I 2.6; N 2.67; V 1.92; E 2.36; P 2.11; K 2.04; M 1.83; Q 2.63
H24: A 2.13; C 2.07
N11: R 2.62; F 2.6; Y 1.99; L 1.77; S 1.95; A 2.64; T 2.68; D 2.75; Q 2.2; K 2.31; E 2.22; V 1.87; P 2.6; H 2.21; C 2.73; G 2.12; I 1.83; M 2.68; W 2.17
H9: P 2.72; G 2.24; C 2.18; N 2.49; T 2.16; S 1.72; K 2.77; Y 2; F 1.68; M 2.06; Q 2.19; A 1.93; I 2.28; V 2.57; W 1.83; L 1.5; R 2.48; D 1.97; E 1.93
V12: L 2.06; W 2.14; N 2.73; I 2.3; S 2.41; K 2; G 1.84; M 2.17; C 2.02; E 3.67; P 2.31; Q 2.66; H 2.4; T 2.44; Y 2.13; F 2.05; R 2.24; A 2.44; D 3.41
L8: D 2.57; K 2.26; S 2.23; G 2.52; Y 2.6; A 2.47; V 2.74; P 2.43; F 2.62; T 2.67; I 2.44; H 2.92; C 3.62; E 2.65; W 2.3; Q 2.62; M 2.12; R 2.4; N 2.67
R18: H 2.29; N 2.37; W 1.79; M 1.96; D 2.46; G 2.27; K 2.23; P 2.87; T 2.29; F 1.94; I 1.6; V 1.73; L 2.17; Y 2.24; S 2.26; A 2.06; C 1.89; E 2.14; Q 1.53
T7: F 2.06; R 2.07; G 2.14; A 1.95; K 1.24; Q 1.9; V 1.85; M 2.86; S 1.72; H 2.46; N 2.09; L 2.28; W 1.75; Y 2.09; I 2.31; P 2.2; D 2.64; C 2.77; E 2.07
H6: V 2.51; R 1.38; P 1.68; Y 1.83; N 2.33; S 1.92; Q 1.88; T 1.94; W 1.66
F15: G 2.93; D 2.48; L 2.32; C 3.02; N 2.72; Q 3.25; M 2.54; I 2.38; V 2; K 2.21; T 2.99; A 2.76; H 2.39; R 2.35; P 2.01; E 2.79; Y 2.31; S 2.39; W 2.96
C16: L 2.1; D 2.17; R 2.17; P 2.02; E 2.5; W 1.62; S 1.71; F 1.99; H 1.82; M 2.01; G 2; Q 2.26; T 2.4; A 2.05; I 1.86; N 2.12; V 2.14; Y 2.09; K 2.35
